Measurements published in the RNAGym collection of RNA variant scans (doi:10.1093/molbev/msab373).

B1: Azoarcus group I ribozyme (parent)
chain: GUGCCUUGCGCCGGGAAACCACGCAAGGGAUGGUGUCAAAUUCGGCGAAACCUAAGCGCCCGCCCGGGCGUAUGGCAACGCCGAGCCAAGCUUCGGCGCCUGCGCCGAUGAAGGUGUAGAGACUAGACGGCACCCACCUAAGGCAAACGCUAUGGUGAAGGCAUAGUCCAGGGAGUGGCGAAAGUCACACAAACCGG

Variants of: B1
Experiment: reverse-splicing fitness (ratio to wild type); higher = more active; in vitro selection; Mg2+ level not given
Method in brief: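 An in vitro group I ribozyme library with randomized positions was T7-transcribed and gel-purified. In triplicate, 10 pmol RNA in EPPS pH 7.5 was reacted with 50 pmoles of a 30-nt RNA substrate for 1 h at 37 °C across several added MgCl2 levels (1–48 mM), then stopped with EDTA. Products were reverse transcribed from a substrate-complementary primer, PCR-amplified and sequenced (HiSeq 4000). Fitness is a variant's read proportion after selection over that before, normalised to wild type.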
In the case of GUGCCUUGCGCCGGGAAACCACGCAAGGGAUGGUGUCAAAUUCGGCGAAACCUAAGCGCCCGCCCGGGCGUAUGGCAACGCCGAGCCAAGCUUCGGCGCCUGCGCCGAUGUAGGUGUAGGGACUAGACGGCACCCACCUAAGGCAAACGAUAUGGUGAAGGCAUAGUCCAGGGAGUGGCGAAAGUCACACAAACCGG, the reverse-splicing fitness is reported as 0.02. Work on GUGCCUUGCGCCGGGAAACCACGCAAGGGAUGGUGUCAAAUUCGGCGAAACCUAAGCGCCCGCCCGGGCGUAUGGCAACGCCGAGCCAAGCUUCGGCGCCUGCGCCGAUGUAGGUGUAGGGACUAGACGGCACCCACCUAAGGCUAACGCUAUGGUGAAGGCAUAGUCUAGGGAGCGGCGAAAGUCACACAAACCGG yielded a reverse-splicing fitness of 0.0495. In the case of GUGCCUUGCGCCGGGAAACCACGCAAGGGAUGGUGUCAAAUUCGGCGAAACCUAAGCGCCCGCCCGGGCGUAUGGCAACGCCGAGCCAAGCUUCGGCGCCUGCGCCGAUGUAGGUGUAGGGACUAGACGGCACCCACCUAAGGCUAACGCUAUGGUGAAGGCAUAGUCUAGGGAGAGGCGAAAGUCACACAAACCGG, the reverse-splicing fitness is reported as 0.0488. GUGCCUUGCGCCGGGAAACCACGCAAGGGAUGGUGUCAAAUUCGGCGAAACCUAAGCGCCCGCCCGGGCGUAUGGCAACGCCGAGCCAAGCUUCGGCGCCUGCGCCGAUGUAGGUGUAGGGACUAGACGGCACCCACCUAAGGCUAACGCUAUGGUGAAGGCAUAGUCUAGGGAGGGGCGAAAGUCACACAAACCGG showed a reverse-splicing fitness of 0.00682. Variant GUGCCUUGCGCCGGGAAACCACGCAAGGGAUGGUGUCAAAUUCGGCGAAACCUAAGCGCCCGCCCGGGCGUAUGGCAACGCCGAGCCAAGCUUCGGCGCCUGCGCCGAUGUAGGUGUAGGGACUAGACGGCACCCACCUAAGGCUAACGCUAUGGUGAAGGCAUAGUCAAGGGAGAGGCGAAAGUCACACAAACCGG has a reverse-splicing fitness of 0.0201. GUGCCUUGCGCCGGGAAACCACGCAAGGGAUGGUGUCAAAUUCGGCGAAACCUAAGCGCCCGCCCGGGCGUAUGGCAACGCCGAGCCAAGCUUCGGCGCCUGCGCCGAUGUAGGUGUAGGGACUAGACGGCACCCACCUAAGGCUAACGCUAUGGUGAAGGCAUAGUCAAGGGAGCGGCGAAAGUCACACAAACCGG gave a reverse-splicing fitness of 0.0247. Variant GUGCCUUGCGCCGGGAAACCACGCAAGGGAUGGUGUCAAAUUCGGCGAAACCUAAGCGCCCGCCCGGGCGUAUGGCAACGCCGAGCCAAGCUUCGGCGCCUGCGCCGAUGUAGGUGUAGGGACUAGACGGCACCCACCUAAGGCUAACGCUAUGGUGAAGGCAUAGUCAAGGGAGGGGCGAAAGUCACACAAACCGG has a reverse-splicing fitness of 0.00427. GUGCCUUGCGCCGGGAAACCACGCAAGGGAUGGUGUCAAAUUCGGCGAAACCUAAGCGCCCGCCCGGGCGUAUGGCAACGCCGAGCCAAGCUUCGGCGCCUGCGCCGAUGUAGGUGUAGGGACUAGACGGCACCCACCUAAGGCUAACGCUAUGGUGAAGGCAUAGUCCAGGGAGAGGCGAAAGUCACACAAACCGG gave a reverse-splicing fitness of 0.0396. Variant GUGCCUUGCGCCGGGAAACCACGCAAGGGAUGGUGUCAAAUUCGGCGAAACCUAAGCGCCCGCCCGGGCGUAUGGCAACGCCGAGCCAAGCUUCGGCGCCUGCGCCGAUGUAGGUGUAGGGACUAGACGGCACCCACCUAAGGCUAACGCUAUGGUGAAGGCAUAGUCCAGGGAGGGGCGAAAGUCACACAAACCGG has a reverse-splicing fitness of 0.00581. In the case of GUGCCUUGCGCCGGGAAACCACGCAAGGGAUGGUGUCAAAUUCGGCGAAACCUAAGCGCCCGCCCGGGCGUAUGGCAACGCCGAGCCAAGCUUCGGCGCCUGCGCCGAUGUAGGUGUAGGGACUAGACGGCACCCACCUAAGGCUAACGCUAUGGUGAAGGCAUAGUCCAGGGAGCGGCGAAAGUCACACAAACCGG, the reverse-splicing fitness is reported as 0.0483. Work on GUGCCUUGCGCCGGGAAACCACGCAAGGGAUGGUGUCAAAUUCGGCGAAACCUAAGCGCCCGCCCGGGCGUAUGGCAACGCCGAGCCAAGCUUCGGCGCCUGCGCCGAUGUAGGUGUAGGGACUAGACGGCACCCACCUAAGGCUAACGCUAUGGUGAAGGCAUAGUCGAGGGAGAGGCGAAAGUCACACAAACCGG yielded a reverse-splicing fitness of 0.0309. GUGCCUUGCGCCGGGAAACCACGCAAGGGAUGGUGUCAAAUUCGGCGAAACCUAAGCGCCCGCCCGGGCGUAUGGCAACGCCGAGCCAAGCUUCGGCGCCUGCGCCGAUGUAGGUGUAGGGACUAGACGGCACCCACCUAAGGCUAACGCUAUGGUGAAGGCAUAGUCGAGGGAGGGGCGAAAGUCACACAAACCGG showed a reverse-splicing fitness of 0.00486. With GUGCCUUGCGCCGGGAAACCACGCAAGGGAUGGUGUCAAAUUCGGCGAAACCUAAGCGCCCGCCCGGGCGUAUGGCAACGCCGAGCCAAGCUUCGGCGCCUGCGCCGAUGUAGGUGUAGGGACUAGACGGCACCCACCUAAGGCUAACGCUAUGGUGAAGGCAUAGUCGAGGGAGCGGCGAAAGUCACACAAACCGG the reverse-splicing fitness was 0.045. In the case of GUGCCUUGCGCCGGGAAACCACGCAAGGGAUGGUGUCAAAUUCGGCGAAACCUAAGCGCCCGCCCGGGCGUAUGGCAACGCCGAGCCAAGCUUCGGCGCCUGCGCCGAUGUAGGUGUAGGGACUAGACGGCACCCACCUAAGGCUAACGCUAUGGUGAAGGCAUAGUCUAGGGAGUGGCGAAAGUCACACAAACCGG, the reverse-splicing fitness is reported as 0.164. Work on GUGCCUUGCGCCGGGAAACCACGCAAGGGAUGGUGUCAAAUUCGGCGAAACCUAAGCGCCCGCCCGGGCGUAUGGCAACGCCGAGCCAAGCUUCGGCGCCUGCGCCGAUGUAGGUGUAGGGACUAGACGGCACCCACCUAAGGCUAACGCUAUGGUGAAGGCAUAGUCGAGGGAGUGGCGAAAGUCACACAAACCGG yielded a reverse-splicing fitness of 0.213.
